Experimental data published in patent US20100239594A1 (IBIO, published 2010).

Assays:
[1] = biological target: T1, Bacillus anthracis lethal factor (LF) polypeptide (Bacillus anthracis, UniProt P15917 34-809); experiment: Western blot and ELISA, plant-produced antibody
T1 sequence: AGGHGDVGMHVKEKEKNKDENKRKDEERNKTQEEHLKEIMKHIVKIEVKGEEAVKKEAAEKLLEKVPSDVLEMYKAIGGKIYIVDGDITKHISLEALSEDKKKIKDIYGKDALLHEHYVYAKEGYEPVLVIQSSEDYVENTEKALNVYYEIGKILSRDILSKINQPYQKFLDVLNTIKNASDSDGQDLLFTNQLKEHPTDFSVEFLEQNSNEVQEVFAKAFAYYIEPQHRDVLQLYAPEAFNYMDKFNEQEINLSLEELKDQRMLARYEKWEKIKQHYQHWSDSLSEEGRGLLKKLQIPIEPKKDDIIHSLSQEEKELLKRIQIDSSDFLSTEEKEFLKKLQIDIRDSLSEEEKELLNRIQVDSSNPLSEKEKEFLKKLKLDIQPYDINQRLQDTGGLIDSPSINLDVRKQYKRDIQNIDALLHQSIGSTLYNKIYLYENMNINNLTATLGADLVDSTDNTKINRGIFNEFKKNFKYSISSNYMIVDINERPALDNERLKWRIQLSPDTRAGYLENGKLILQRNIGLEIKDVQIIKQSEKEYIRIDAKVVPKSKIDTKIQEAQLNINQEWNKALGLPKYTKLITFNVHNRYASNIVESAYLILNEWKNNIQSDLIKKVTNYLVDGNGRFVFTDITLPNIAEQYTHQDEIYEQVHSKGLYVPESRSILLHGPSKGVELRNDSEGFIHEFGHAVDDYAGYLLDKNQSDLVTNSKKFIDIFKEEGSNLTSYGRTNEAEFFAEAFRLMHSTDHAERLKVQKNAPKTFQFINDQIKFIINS

[2] = biological target: Bacillus anthracis protective antigen (PA) polypeptide (Bacillus anthracis, UniProt P13423 30-764); experiment: Western blot and ELISA, plant-produced antibody
Chain of Bacillus anthracis protective antigen (PA) polypeptide (P13423 30-764 limits assumed): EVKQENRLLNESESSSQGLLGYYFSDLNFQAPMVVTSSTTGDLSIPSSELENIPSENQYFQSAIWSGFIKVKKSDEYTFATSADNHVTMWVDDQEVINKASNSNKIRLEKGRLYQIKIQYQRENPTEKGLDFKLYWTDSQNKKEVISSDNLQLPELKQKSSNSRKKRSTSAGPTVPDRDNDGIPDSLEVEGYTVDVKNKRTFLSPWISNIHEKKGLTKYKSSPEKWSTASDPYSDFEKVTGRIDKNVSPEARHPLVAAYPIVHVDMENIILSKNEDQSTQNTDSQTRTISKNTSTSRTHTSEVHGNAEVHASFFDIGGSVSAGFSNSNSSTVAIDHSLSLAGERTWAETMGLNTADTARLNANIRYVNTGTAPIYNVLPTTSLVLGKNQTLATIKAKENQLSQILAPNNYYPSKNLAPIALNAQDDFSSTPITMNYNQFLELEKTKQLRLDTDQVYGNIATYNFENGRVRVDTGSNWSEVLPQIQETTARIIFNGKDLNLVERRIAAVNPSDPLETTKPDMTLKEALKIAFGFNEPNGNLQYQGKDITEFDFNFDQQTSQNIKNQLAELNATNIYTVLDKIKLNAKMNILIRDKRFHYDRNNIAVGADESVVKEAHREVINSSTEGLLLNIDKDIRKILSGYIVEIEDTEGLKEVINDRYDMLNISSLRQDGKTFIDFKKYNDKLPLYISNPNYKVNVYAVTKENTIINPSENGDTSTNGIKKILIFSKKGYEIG

| Binder | binding result [1] | binding result [2] |
| --- | --- | --- |
| LF-1 huMAb, plant-produced LF antibody (antibody, V domains shown) VH: EVQLLESGGGLVQPGGSLRLSCSGSGFMFSSYAMSWVRQAPGKGLEWVSGISGSGGTTNYADSVKGRFTISRDNSKNTLYMQMNSLRAEDTAVYYCAKDGVYGRLGGSDYWGQGTLVTVSS VL: EIVLTQSPDFQSVSPKEKVTITCRASQSVGSSLHWYQQKPDQSPKLLIKYASQSFSGVPSRFSGSGSGTDFTLTINSLETEDAATYYCHQSSSLPLTFGGGTKVEIKR | binds | – |
| PA-1 huMAb, plant-produced glycosylated PA antibody (antibody, V domains shown) VH: QVQLVQSGAEVKKPGASVKVSCKASGYTFTSNAIQWVRQAPGQRLEWVGWINGGDGNTKYSQKFQGRVTISRDISASTAYMELSSLRSEDTAVYYCARHRLQRGGFDPWGQGTLVTVSS VL: EIVLTQSPGTLSLSPGERATLSCRASQSVSYSSLAWYQQKPGQAPSLLIYGASSRATGIPDRFSGSGSGPDFTLTISRLEPEDFAVYYCQHYGNSPYTFGQGTKLEIKR | – | binds |
